T1: MSL2 CXC domain (CXCvir) (Drosophila virilis, UniProt O76733 514-567)
T1 sequence: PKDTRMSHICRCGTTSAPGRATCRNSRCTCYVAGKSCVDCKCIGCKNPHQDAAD

B1: S12 mutant (dsDNA)
DNA 1: ATGAAAAAAATG
DNA 2: CATTTTTTTCAT
B2: S12 (dsDNA)
DNA 1: ATGAGCGAGATG
DNA 2: CATCTCGCTCAT

Target: T1, MSL2 CXC domain (CXCvir)
Experiment: NMR 1H-15N HSQC titration

Row | Binder | Kd [nM]
1 | B1 | 2400
2 | B2 | 2800
